# Measurements published in paper PMC12499447, “API5 Phosphorylation Promotes Antiviral Immunity by Inhibiting Degradation of Cytosolic RNA Sensor RLRs” (Advanced Science, 2025).
# B1: GST-API5 (natural protein, human, UniProt Q9BZZ5 1-524, looked up)
# chain: MPTVEELYRNYGILADATEQVGQHKDAYQVILDGVKGGTKEKRLAAQFIPKFFKHFPELADSAINAQLDLCEDEDVSIRRQAIKELPQFATGENLPRVADILTQLLQTDDSAEFNLVNNALLSIFKMDAKGTLGGLFSQILQGEDIVRERAIKFLSTKLKTLPDEVLTKEVEELILTESKKVLEDVTGEEFVLFMKILSGLKSLQTVSGRQQLVELVAEQADLEQTFNPSDPDCVDRLLQCTRQAVPLFSKNVHSTRFVTYFCEQVLPNLGTLTTPVEGLDIQLEVLKLLAEMSSFCGDMEKLETNLRKLFDKLLEYMPLPPEEAENGENAGNEEPKLQFSYVECLLYSFHQLGRKLPDFLTAKLNAEKLKDFKIRLQYFARGLQVYIRQLRLALQGKTGEALKTEENKIKVVALKITNNINVLIKDLFHIPPSYKSTVTLSWKPVQKVEIGQKRASEDTTSGSPPKKSSAGPKRDARQIYNPPSGKYSSNLGNFNYEQRGAFRGSRGGRGWGTRGNRSRGRLY
# notes: API5, human, full-length gene amplified from HEK293T cells, in pGEX-4T-1; also called pGEX-4T-1-API5; source: E. coli BL21 (pLysS), purified (glutathione resin)
# Key:
# MDA5 = MDA5 (UniProt Q9BYX4); assay: co-IP; conditions: reference: API5 wild type; sites S464
# RIG‐I = RIG‐I (UniProt O95786); assay: co-IP; conditions: reference: API5 wild type; sites S464
# p62 = p62 (UniProt Q13501); assay: co-IP; conditions: reference: API5 wild type; sites S464
# His-SRPK1 = target: T1, His-SRPK1 (human (amplified from HEK293T cells), UniProt Q96SB4 1-655); assay: pull-down; purified GST-API5 (20 ng) or GST (20 ng) incubated with His-SRPK1 (50 ng) at 4 °C for 4 h; captured on GST resin; washed five times with NP-40 lysis buffer; immunoblot; conditions: both partners purified
# T1 construct: SRPK1, full-length gene amplified from HEK293T cells, in pET-28a; also called pET-28a-SRPK1; source: E. coli BL21 (pLysS), purified (Ni-NTA)
Molecule,binding against the reference (MDA5),binding against the reference (RIG‐I),binding against the reference (p62),binding result (His-SRPK1)
API5 (from UniProt Q9BZZ5) API5 S464A,lost,lost,weaker,
B1,,,,binds
